In the supplement of paper PMC9112550, “Optimization of the antimicrobial peptide Bac7 by deep mutational scanning” (BMC Biology, 2022):

tested on: Escherichia coli TOP10; assay: shrunken log2 fold change of peptide-encoding DNA abundance (4.5 h post-induction vs induction); higher = less antimicrobial activity (less host growth inhibition); conditions: time post-induction: 4.5 h; library: site-saturation at positions 5, 18, 19, 20
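Further: peptides expressed intracellularly from a pBAD plasmid library in pooled LB shake-flask culture, induced with 0.3% L-arabinose, DNA abundance read by NGS, three biological replicates, DESeq2 with apeglm shrinkage.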

RRIRYRPPRLPRPRPRPQLRPRP and RRIRKRPPRLPRPRPRPVYCPRP are within 0.2 log units of each other in “shrunken log2 fold change” value: -0.193 for the first, -0.199 for the second.

RRIRFRPPRLPRPRPRPFARPRP and RRIRDRPPRLPRPRPRPVTYPRP are within 0.2 log units of each other in “shrunken log2 fold change” value: -0.115 for the first, -0.0305 for the second.

Compared with RRIRLRPPRLPRPRPRPKSGPRP, RRIRNRPPRLPRPRPRPCYLPRP is lower in “shrunken log2 fold change” value: 0.143 for the first, -1.19 for the second.

First: RRIRERPPRLPRPRPRPLAAPRP
Second: RRIRGRPPRLPRPRPRPKCMPRP
The “shrunken log2 fold change” value of the first is lower: -0.0502 for the first, 0.209 for the second.

RRIRHRPPRLPRPRPRPVTAPRP and RRIRPRPPRLPRPRPRPVNCPRP are within 0.2 log units of each other in “shrunken log2 fold change” value: 0.0123 for the first, -0.118 for the second.

Compared with RRIRTRPPRLPRPRPRPKYGPRP, RRIRTRPPRLPRPRPRPQYLPRP is lower in “shrunken log2 fold change” value: -0.0738 for the first, -0.436 for the second.

RRIRKRPPRLPRPRPRPVSLPRP and RRIRDRPPRLPRPRPRPTGQPRP are within 0.2 log units of each other in “shrunken log2 fold change” value: 0.0505 for the first, -0.0665 for the second.

RRIRCRPPRLPRPRPRPLRFPRP and RRIRKRPPRLPRPRPRPHWKPRP are within 0.2 log units of each other in “shrunken log2 fold change” value: 0.0668 for the first, -0.00804 for the second.

Compared with RRIRMRPPRLPRPRPRPLCWPRP, RRIRQRPPRLPRPRPRPHCYPRP is lower in “shrunken log2 fold change” value: 1.15 for the first, -0.0282 for the second.

Going from RRIRTRPPRLPRPRPRPVEKPRP to RRIRHRPPRLPRPRPRPNQWPRP, the “shrunken log2 fold change” value falls from -0.016 to -0.227.

RRIRDRPPRLPRPRPRPGCQPRP and RRIRARPPRLPRPRPRPNDQPRP are within 0.2 log units of each other in “shrunken log2 fold change” value: 0.341 for the first, 0.226 for the second.

Going from RRIRPRPPRLPRPRPRPKLMPRP to RRIRRRPPRLPRPRPRPMPPPRP, the “shrunken log2 fold change” value rises from 0.121 to 0.676.

First: RRIRKRPPRLPRPRPRPATSPRP
Second: RRIRFRPPRLPRPRPRPCPDPRP
The “shrunken log2 fold change” value of the first is higher: 0.288 for the first, -0.45 for the second.

Going from RRIRMRPPRLPRPRPRPSWQPRP to RRIRTRPPRLPRPRPRPQIHPRP, the “shrunken log2 fold change” value falls from 0.305 to -0.15.

RRIRVRPPRLPRPRPRPLIEPRP and RRIRARPPRLPRPRPRPSVIPRP are within 0.2 log units of each other in “shrunken log2 fold change” value: 0.103 for the first, -0.0459 for the second.

RRIRLRPPRLPRPRPRPIVEPRP and RRIRVRPPRLPRPRPRPLAAPRP are within 0.2 log units of each other in “shrunken log2 fold change” value: 0.0406 for the first, 0.152 for the second.

Compared with RRIRIRPPRLPRPRPRPMFPPRP, RRIRFRPPRLPRPRPRPGMKPRP is higher in “shrunken log2 fold change” value: -0.724 for the first, -0.0551 for the second.

First: RRIRHRPPRLPRPRPRPCSAPRP
Second: RRIRVRPPRLPRPRPRPGHYPRP
The “shrunken log2 fold change” value of the first is lower: -0.473 for the first, -0.125 for the second.

First: RRIRKRPPRLPRPRPRPCVFPRP
Second: RRIRMRPPRLPRPRPRPKMQPRP
The “shrunken log2 fold change” value of the first is lower: 0.204 for the first, 0.995 for the second.

Compared with RRIRWRPPRLPRPRPRPQTAPRP, RRIRQRPPRLPRPRPRPCYCPRP is lower in “shrunken log2 fold change” value: 0.282 for the first, -0.338 for the second.

RRIRQRPPRLPRPRPRPESGPRP and RRIRARPPRLPRPRPRPNPFPRP are within 0.2 log units of each other in “shrunken log2 fold change” value: 0.0279 for the first, -0.0899 for the second.

RRIRLRPPRLPRPRPRPKKLPRP and RRIRIRPPRLPRPRPRPMPIPRP are within 0.2 log units of each other in “shrunken log2 fold change” value: 0.111 for the first, -0.0218 for the second.

First: RRIRDRPPRLPRPRPRPTQSPRP
Second: RRIRCRPPRLPRPRPRPDVTPRP
The “shrunken log2 fold change” value of the first is higher: 0.439 for the first, 0.0172 for the second.

RRIRYRPPRLPRPRPRPPSCPRP and RRIRERPPRLPRPRPRPEPMPRP are within 0.2 log units of each other in “shrunken log2 fold change” value: -0.00175 for the first, -0.0016 for the second.

RRIRKRPPRLPRPRPRPTCYPRP and RRIRLRPPRLPRPRPRPIKAPRP are within 0.2 log units of each other in “shrunken log2 fold change” value: 0.0572 for the first, -0.0378 for the second.

Compared with RRIRNRPPRLPRPRPRPPKRPRP, RRIRKRPPRLPRPRPRPRWQPRP is lower in “shrunken log2 fold change” value: 0.497 for the first, 0.189 for the second.

Going from RRIRFRPPRLPRPRPRPIQNPRP to RRIRNRPPRLPRPRPRPYVEPRP, the “shrunken log2 fold change” value rises from -0.544 to -0.00677.

Going from RRIRIRPPRLPRPRPRPWLCPRP to RRIRPRPPRLPRPRPRPRQWPRP, the “shrunken log2 fold change” value rises from -0.121 to 0.485.

RRIRNRPPRLPRPRPRPTDSPRP and RRIRNRPPRLPRPRPRPWSDPRP are within 0.2 log units of each other in “shrunken log2 fold change” value: -0.21 for the first, -0.0436 for the second.

RRIRSRPPRLPRPRPRPYSQPRP and RRIRYRPPRLPRPRPRPGFVPRP are within 0.2 log units of each other in “shrunken log2 fold change” value: -0.0604 for the first, 0.0168 for the second.

RRIRLRPPRLPRPRPRPDQNPRP and RRIRQRPPRLPRPRPRPKMCPRP are within 0.2 log units of each other in “shrunken log2 fold change” value: -0.0565 for the first, -0.002 for the second.

Going from RRIRYRPPRLPRPRPRPSDAPRP to RRIRTRPPRLPRPRPRPYNEPRP, the “shrunken log2 fold change” value falls from -0.386 to -1.35.

First: RRIRYRPPRLPRPRPRPMDWPRP
Second: RRIRLRPPRLPRPRPRPFEDPRP
The “shrunken log2 fold change” value of the first is higher: 0.0155 for the first, -0.193 for the second.

Compared with RRIRARPPRLPRPRPRPDISPRP, RRIRQRPPRLPRPRPRPTVTPRP is lower in “shrunken log2 fold change” value: 0.277 for the first, -0.47 for the second.

First: RRIRLRPPRLPRPRPRPSLGPRP
Second: RRIRDRPPRLPRPRPRPCMPPRP
The “shrunken log2 fold change” value of the first is lower: -0.213 for the first, 0.0198 for the second.

Going from RRIRQRPPRLPRPRPRPIRMPRP to RRIRHRPPRLPRPRPRPSPSPRP, the “shrunken log2 fold change” value rises from -0.291 to 0.00467.

RRIRRRPPRLPRPRPRPQCLPRP and RRIRNRPPRLPRPRPRPVIGPRP are within 0.2 log units of each other in “shrunken log2 fold change” value: 0.066 for the first, -0.00814 for the second.

For RRIRNRPPRLPRPRPRPTYSPRP, the “shrunken log2 fold change” value was -0.226.
